Measured values as given in article PMC8148087.
Where two headings read alike, the source gives them in different places.

Columns and labels:
[1] = target: FAM-HLA (model peptide HLA attached to a FAM fluorophore); experiment: fluorescence polarisation
[2] = target: FAM-HLA (model peptide HLA attached to a FAM fluorophore); experiment: fluorescence polarisation; remark: listed apart in the source

Kd [1] [µM]	Kd [2] [µM]	Substance
> 30	9	E. coli DnaK Y145A (from UniProt P0A6Y8 1-638) (natural protein)
4	8	E. coli DnaK Y145W (from UniProt P0A6Y8 1-638) (natural protein)
> 30	9	E. coli DnaK, wild type (from UniProt P0A6Y8 1-638) (natural protein)
4	–	human Hsc70 Y149A (from UniProt P11142 1-646) (natural protein)
26	5	human heat shock cognate protein 70 (Hsc70), wild type (from UniProt P11142 1-646) (natural protein)
